In article PMC3765157 (PLoS ONE, 2013):

Target: the molecule itself
Assay: AUC

B1: PrP-like ectodomain of mouse ZIP5 (Mm_ZIP5, residues 20-207), secreted from mammalian cells, deglycosylated (domain or fragment)
chain: WVGGSVPNLGPAEQEQNHYLAQLFGLYGENGTLTAGGLARLLHSLGLGRVQGLRLGHHEPPTGRAAPTSGDNFTHRLQEPELSVDIWAGMPLGPSGWGDQEESKAPDLHGSGPSSLDLFQRLLLLDHSLADHLNEDCLNGSQLLVNFGLSPVAPLTPRQFALLSPALLYQIDSRVCIKTPAPAPPGDV
notes: also called ZIP5 ectodomain; PrP-like ZIP5 ectodomain
stoichiometry N: ~2
